This test concerns the target T1, recombinant PD-L1 (UniProt Q9NZQ7 19-238, limits assumed).
T1 construct: also called Programmed Death-Ligand 1
The experiment in a line: SPR, Biacore T200, multi-cycle kinetics, hTT-01 captured on Protein A chip, PD-L1 as analyte, 25 C. The protocol:
The chip contains MabSelect SuRe ligand on the surface, allowing orientation-specific binding of the Fc region of an antibody.
The assay was performed by using the Kinetic/Affinity wizard. The Flow path was 2-1, as the ligand was injected and captured in Flow cell 2 and Flow cell 1 acted as a reference. A series of concentrations of PD-L1 were injected over the reference and the ligand surface consecutively as the association phase with short dissociation phases in between by injection running buffer. Then regeneration solution was injected as the regeneration phase. All the procedures were conducted at 25° C.
On the technique in general: Surface plasmon resonance follows binding to a sensor surface in real time, without labels.

T1 sequence (Q9NZQ7 19-238 limits assumed): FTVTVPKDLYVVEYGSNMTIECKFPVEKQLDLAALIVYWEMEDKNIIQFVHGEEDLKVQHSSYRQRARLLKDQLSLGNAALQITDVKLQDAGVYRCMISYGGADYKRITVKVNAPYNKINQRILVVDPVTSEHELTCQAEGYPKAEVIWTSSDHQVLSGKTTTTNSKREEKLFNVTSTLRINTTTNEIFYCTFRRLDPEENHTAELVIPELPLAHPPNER

B1: humanized anti-PD-L1 monoclonal antibody hTT-01 (antibody, V domains shown)
VH: EVQLVESGGGLVKPGGSLRLSCAASGFSLSNYVMSWVRQAPGKGLEWVATISSGGRYIYYTDSVKGRFTISRDNAKNSLYLQMNSLRAEDTAVYYCARDGSTLYYFDYWGQGTTVTVSS
VL: QTVLTQSPATLSLSPGERATLSCSASSSVDYMYWYQQKPGQAPRLLIYDTSNLATGIPARFSGSGSGTDFTLTISSLEPEDFATYYCQQWSSSPPITFGQGTKVEIK
notes: It was captured through its Fc on a Protein A chip, and an anti-human IgG secondary antibody was used in FACS; also called TT-01 humanized monoclonal antibody
In general, Kd refers to a measure of binding affinity in units of concentration. By koff is commonly meant a measure of how fast the partners let go of each other. Broadly, the kon is the second-order rate constant of association. As for B1, the Kd came out at 2.56 nM, the “half-life (t1/2) of the interaction” value is 1.31 h, the koff is 0.000147 s⁻¹ and the on-rate constant (kon) was 57700 M⁻¹ s⁻¹.

(Values after patent US20250288612A1 (TOPMUNNITY THERAPEUTICS TAIWAN, published 2025).)
